Substitutions are numbered along the chain they refer to.
Tests used:
[1] = target: T1, human CD20 on cells (human B cells; Raji, SU-DHL-8, SU-DHL-4, A3KAW, NAMALWA) (human, UniProt P11836 1-297); test: binding to Raji cells
T1 construct: whole, on cells
T1 sequence (looked up): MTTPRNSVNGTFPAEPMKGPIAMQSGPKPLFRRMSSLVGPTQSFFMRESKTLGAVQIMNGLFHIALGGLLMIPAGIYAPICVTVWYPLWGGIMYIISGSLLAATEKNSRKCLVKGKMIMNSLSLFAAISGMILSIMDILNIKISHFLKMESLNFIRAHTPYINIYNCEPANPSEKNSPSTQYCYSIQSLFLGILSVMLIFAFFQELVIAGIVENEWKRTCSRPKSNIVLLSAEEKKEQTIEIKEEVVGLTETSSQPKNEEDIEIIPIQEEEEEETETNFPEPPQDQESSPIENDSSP

[2] = target: T1, human CD20 on cells (human B cells; …); test: flow cytometry, SU-DHL-8 cells
Experimental: (§1) Raji, SU-DHL-8, SU-DHL-4, A3KAW and NAMALWA were B-cell lymphoma cell lines with various CD20 expression levels on cell surface. Briefly, the test antibodies were serial diluted and were incubated with the tumor cells on ice. After washing, the cells were subsequently incubated with the APC-labelled anti-human-Fc secondary antibody (BioLegend) on ice. The cells were then washed with PBS prior to analysis by the CytoFLEX flow cytometer (Beckman Coulter). The data was analyzed by FlowJo software.

[3] = target: T2, human CD3 on cells (Jurkat cells, human T cells) (human, UniProt P07766 23-207); test: binding to human CD8+ T cells
T2 construct: whole, on cells
T2 sequence (P07766 23-207): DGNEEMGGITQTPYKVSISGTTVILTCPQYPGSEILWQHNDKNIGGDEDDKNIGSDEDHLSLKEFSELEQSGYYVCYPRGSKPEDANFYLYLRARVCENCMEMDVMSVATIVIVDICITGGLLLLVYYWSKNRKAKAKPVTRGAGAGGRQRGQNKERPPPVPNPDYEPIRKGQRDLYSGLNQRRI

[4] = target: T1, human CD20 on cells (human B cells; …); test: binding to human B cells
[5] = target: T3, cynomolgus monkey CD3 on T cells (cynomolgus monkey, UniProt Q95LI5 22-198); test: flow cytometry, monkey CD3+ T cells
T3 construct: whole, on cells
T3 sequence (Q95LI5 22-198): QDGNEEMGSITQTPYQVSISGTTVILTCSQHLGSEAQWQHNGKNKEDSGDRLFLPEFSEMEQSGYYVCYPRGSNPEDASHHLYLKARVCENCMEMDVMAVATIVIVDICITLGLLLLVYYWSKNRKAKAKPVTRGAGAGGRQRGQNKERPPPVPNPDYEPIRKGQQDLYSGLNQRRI

[6] = target: T4, cynomolgus monkey CD20 on B cells (cynomolgus monkey, UniProt M4ZHZ6 1-297); test: flow cytometry, monkey B cells
T4 construct: whole, on cells
T4 sequence: T1 sequence (looked up) with S25P, F31L, T51A, A157V, K217R, N226S, I227V, T239V
Excerpt: (§2) Human and monkey PBMCs were isolated as mentioned above. Human B cells were further isolated from PBMCs using the EasySep™ Human B Cell Isolation Kit (Stem Cell Technologies). Monkey B cells were isolated from PBMCs using the Non-Human B Primate Cell Isolation Kit (Stem Cell Technologies). Purified human or monkey B cells were stained with the testing antibodies as the primary antibody and the APC-labelled anti-human-Fc antibody (BioLegend) as the secondary antibody. After washing, the cells were analyzed on the CytoFLEX flow cytometer (Beckman Coulter) and the data was analyzed by FlowJo software.

[7] = target: T2, human CD3 on cells (Jurkat cells, human …); test: flow cytometry, human CD3+ T cells
[8] = target: T1, human CD20 on cells (human B cells; …); test: flow cytometry, Raji cells
Experimental: as §1

[9] = target: T1, human CD20 on cells (human B cells; …); test: flow cytometry, SU-DHL-4 cells
Experimental: as §1

[10] = target: T1, human CD20 on cells (human B cells; …); test: flow cytometry, human B cells
Excerpt: as §2

[11] = target: T1, human CD20 on cells (human B cells; …); test: flow cytometry, A3KAW cells
Experimental: as §1

[12] = target: T2, human CD3 on cells (Jurkat cells, human …); test: binding to human CD4+ T cells
[13] = target: T1, human CD20 on cells (human B cells; …); test: flow cytometry, NAMALWA cells
Experimental: as §1

[14] = target: T3, cynomolgus monkey CD3 on T cells; test: flow cytometry, purified monkey CD3+ T cells
[15] = target: T2, human CD3 on cells (Jurkat cells, human …); test: binding to human CD3+ T cells

B1: TY25606 (bispecific antibody, human IgG1, kappa, N297A)
light: QIVLSQSPAILSASPGEKVTMTCRASSSVSYIHWFQQKPGKSPKPWIYATSNLASGVPVRFSGSGSGTSYSLTISRVEAEDAATYYCQQWTSNPPTFGGGTKVEIKRTVAAPSVFIFPPSDEQLKSGTASVVCLLNNFYPREAKVQWKVDNALQSGNSQESVTEQDSKDSTYSLSSTLTLSKADYEKHKVYACEVTHQGLSSPVTKSFNRGEC
heavy: EVQLVQSGAEVKKPGSSVKVSCKASGYTFTSYNMHWVRQAPGKGLEWIGAIYPGSGDTSYNQKFKGRVTITADKSTSTAYMELSSLRSEDTAVYYCARSTYYGGDWYFNVWGQGTLVTVSSASTKGPSVFPLAPSSKSTSGGTAALGCLVKDYFPEPVTVSWNSGALTSGVHTFPAVLQSSGLYSLSSVVTVPSSSLGTQTYICNVNHKPSNTKVDKKVEPKSCDKTHTCPPCPAPELLGGPSVFLFPPKPKDTLMISRTPEVTCVVVDVSHEDPEVKFNWYVDGVEVHNAKTKPREEQYASTYRVVSVLTVLHQDWLNGKEYKCKVSNKALPAPIEKTISKAKGQPREPQVYTLPPSRKKLTKNQVKLTCLVKGFYPSDIAVEWESNGQPENNYKTTPPVLDCDGSFFLYSKLTVDKSRWQQGNVFSCSVMHEALHNHYTQKSLSLSPGK
chain: EVGSYPYDDPDCPSHESDCDQGGGPLGLAGGSQAVVTQEPSLTVSPGGTVTLTCGSSTGAVTTSNYPNWVQQKPGQAPRGLIGGTNKRAPGVPARFSGSLLGGKAALTLSGAQPEDEAEYYCALWYSNLWVFGGGTKLTVLGGGGSGGGGSGGGGSGGGGSEVQLVESGGGLVQPGGSLRLSCAASGFTFNTYAINWVRQAPGKGLEWVGRIRSKYNNYATYYAESVKGRFTISRDDSKNTLYLQINSLRAEDTAVYYCVRHGNFGTSYVSWFAYWGQGTLVTVSSEPKSSDKTHTCPPCPAPELLGGPSVFLFPPKPKDTLMISRTPEVTCVVVDVSHEDPEVKFNWYVDGVEVHNAKTKPREEQYASTYRVVSVLTVLHQDWLNGKEYKCKVSNKALPAPIEKTISKAKGQPREPQVYTDPPSRDELTKNQVSLTCLVDGFYPSDIAVEWESNGQPENCYKTTPPVLDSDGSFFLYSKLTVDKSRWQQGNVFSCSVMHEALHNHYTQDSLSLSPGK
notes: also called SAFEbody/bispecific
In the case of B1, the EC50 [1] is reported as 35 nM, the EC50 [2] is reported as 43 nM and the “Max MFI” value [2] is reported as 5790 MFI. For the same binder, the EC50 [3] was > 2000 nM, the EC50 [4] was 78.2 nM and the “max MFI” value [5] was 174 MFI. For the same binder, the EC50 [6] was 14.4 nM, the “max MFI” value [6] was 36000 MFI and the “max MFI” value [7] was 1090 MFI. The EC50 [8] was 35 nM, the “Max MFI” value [8] was 24200 MFI and the EC50 [9] was 16 nM. The “Max MFI” value [9] was 2.67e+06 MFI, the EC50 [10] was 11.7 nM and the “max MFI” value [10] was 51600 MFI. The EC50 [11] was 121 nM, the “Max MFI” value [11] was 942000 MFI and the EC50 [12] was > 2000 nM. For the same binder, the EC50 [13] was 90.4 nM, the “Max MFI” value [13] was 656000 MFI and the binding result [14] was “no binding”. The EC50 [15] was > 2000 nM.
